Our source for the abundance fitness values is the Human Domainome abundance scans (Beltran et al. 2025).

± gives the uncertainty stated by the source.

B1: Chromodomain-helicase-DNA-binding protein 5, residues 411 to 463; numbered along this chain, Q8TDI0 (parent)
chain: EEDDHMEFCRVCKDGGELLCCDACPSSYHLHCLNPPLPEIPNGEWLCPRCTCP
B2: Gamma-crystallin S, residues 96 to 176; numbered along this chain, P22914 (parent)
chain: IQIFEKGDFSGQMYETTEDCPSIMEQFHMREIHSCKVLEGVWIFYELPNYRGRQYLLDKKEYRKPIDWGAASPAVQSFRRI

The variants in the first series derive from B1. Briefly: abundance fitness (aPCA) (normalised: wild type 0, dead -1); higher = more abundant; growth selection in yeast, the domain comes from the species named. Conditions: Homo sapiens.
Take C50N: the abundance fitness was -0.591 ± 0.11.

Consider C50K, for which the abundance fitness is -0.598 ± 0.065.

As to C50M, the abundance fitness is -0.77 ± 0.065.

Consider C50Y, for which the abundance fitness is -0.568 ± 0.11.

As for C50W, the abundance fitness is -0.477 ± 0.066.

Turning to C50R, the abundance fitness is -0.686 ± 0.049.

As to C50V, the abundance fitness is -0.675 ± 0.057.

Take C50I: the abundance fitness is -0.751 ± 0.059.

C50Q: the abundance fitness was -0.619 ± 0.049.

For C50T, the abundance fitness is -0.74 ± 0.064.

Regarding C50S, the abundance fitness was -0.702 ± 0.053.

As for C50P, the abundance fitness is -0.517 ± 0.052.

For the variant C52N, the abundance fitness was found to be 0.222 ± 0.11.

For the variant C52I, the abundance fitness is -0.239 ± 0.099.

Regarding C52F, the abundance fitness was -0.141 ± 0.098.

As for C52Y, the abundance fitness was -0.295 ± 0.092.

With C52L, the abundance fitness stood at 0.018 ± 0.049.

In the case of C52H, the abundance fitness was found to be 0.189 ± 0.1.

For C52K, the abundance fitness was -0.198 ± 0.14.

As for C52A, the abundance fitness worked out at 0.067 ± 0.054.

For C52G, the abundance fitness turned out to be 0.029 ± 0.055.

On to C52P, for which the abundance fitness was found to be 0.11 ± 0.053.

With C52E, the abundance fitness was 0.126 ± 0.08.

With C52R, the abundance fitness was -0.026 ± 0.045.

As for C52D, the abundance fitness came to 0.262 ± 0.085.

Consider C52Q, for which the abundance fitness is -0.121 ± 0.11.

With C52V, the abundance fitness is 0.062 ± 0.055.

As for C52M, the abundance fitness turned out to be 0.021 ± 0.053.

With C52S, the abundance fitness was determined as 0.138 ± 0.061.

In the case of T51N, the abundance fitness is 0.018 ± 0.051.

For T51M, the abundance fitness was -0.296 ± 0.095.

On to T51C, for which the abundance fitness is 0.086 ± 0.083.

On to T51W, for which the abundance fitness was -0.346 ± 0.075.

For the variant T51F, the abundance fitness is -0.142 ± 0.12.

On to T51S, for which the abundance fitness is -0.089 ± 0.046.

In the case of T51P, the abundance fitness was -0.078 ± 0.089.

Take T51A: the abundance fitness is -0.061 ± 0.046.

In the case of T51D, the abundance fitness was 0.202 ± 0.099.

Take T51H: the abundance fitness is -0.228 ± 0.13.

As to T51R, the abundance fitness is -0.035 ± 0.053.

In the case of T51E, the abundance fitness is -0.027 ± 0.063.

On to T51G, for which the abundance fitness was -0.052 ± 0.063.

Turning to T51V, the abundance fitness is -0.084 ± 0.064.

Regarding T51Y, the abundance fitness is -0.161 ± 0.097.

For the variant T51Q, the abundance fitness was 0.116 ± 0.092.

T51K: the abundance fitness is 0.049 ± 0.089.

Consider P53R, for which the abundance fitness is -0.669 ± 0.29.

In the case of P53G, the abundance fitness was -0.097 ± 0.06.

Take P53A: the abundance fitness is -0.091 ± 0.14.

As for P53L, the abundance fitness amounted to 0.13 ± 0.15.

As for P53T, the abundance fitness is -0.083 ± 0.16.

Regarding P53S, the abundance fitness was -0.153 ± 0.13.

Another series covers variants of B2. The series is described as above. The following applies: Homo sapiens.
TQIFEKGDFSGQMYETTEDCPSIMEQFHMREIHSCKVLEGVWIFYELPNYRGRQYLLDKKEYRKPIDWGAASPAVQSFRRI [I1T]: the abundance fitness was -0.191 ± 0.13.

Take SQIFEKGDFSGQMYETTEDCPSIMEQFHMREIHSCKVLEGVWIFYELPNYRGRQYLLDKKEYRKPIDWGAASPAVQSFRRI [I1S]: the abundance fitness is -0.973 ± 0.078.
